Source: patent US20180142284, “MULTIPLEX ANALYSIS OF GENE EXPRESSION IN INDIVIDUAL LIVING CELLS” (THE GENERAL HOSPITAL CORPORATION, published 2018)

How the values were obtained:
[1] = target: PKR dsRBD (MAGIC factor), Alexa Fluor 488-labeled, not affinity purified (Homo sapiens) (UniProt P19525); experiment: pulldown; settings: only 4% of labeled protein able to bind dsRNA
[2] = target: T1, PKR dsRBD (MAGIC factor), Alexa Fluor 488-labeled, affinity purified on dsRNA-agarose (Homo sapiens, UniProt P19525 SEQ:22-205); experiment: EMSA; stated to bind specifically to dsRNA; gel result only in figure; settings: tags: N-terminal His6; Alexa Fluor 488 on primary amines; label: Alexa Fluor 647
T1 chain: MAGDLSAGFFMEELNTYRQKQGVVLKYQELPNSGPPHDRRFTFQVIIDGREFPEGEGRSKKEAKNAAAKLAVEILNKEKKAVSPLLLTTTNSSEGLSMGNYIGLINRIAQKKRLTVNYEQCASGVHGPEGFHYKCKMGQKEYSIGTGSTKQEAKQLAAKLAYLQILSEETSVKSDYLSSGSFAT
Text: (§1) MAGIC factor was fluorescently-labeled with Alexa Fluor 488 and then reacted with dsRNA-coupled agarose beads to separate binding, functional protein (eluate) from non-binding, non-functional protein (flow and wash fractions). […] Unlabeled and unpurified fluorescent MAGIC factor and affinity purified fluorescent MAGIC factor were reacted with Alexa Fluor 647-labeled dsRNA and ssRNA and run on a native gel. The gel was visualized in the RNA channel (Ex. 633 nm/Em. 670/30 nm BP), protein channel (Ex. 488 nm/Em. 526 nm SP) and FRET channel (Ex. 488 nm/Em. 670/30nm). […] The dashed lines represent the cutoff after which increasing concentrations of only unpurified MAGIC factor were reacted with dsRNA.

[3] = target: T1, PKR dsRBD (MAGIC factor), Alexa Fluor …; experiment: EMSA; Kd value only in figure; about 30-fold higher affinity than unpurified labeled protein; settings: tags: N-terminal His6; Alexa Fluor 488 on primary amines; label: Alexa Fluor 647
Text: as §1

Molecule: dsRNA coupled to agarose beads
- binding signal [1]: 4%

Molecule: GAGUCCUUCCACGAUACC (ssRNA, aminoallyl-uridine; sequence printed with T, transcribed as RNA) [EMSA ssRNA]
- binding result [2]: no binding

B1: EMSA dsRNA (dsRNA)
RNA 1: GAGUCCUUCCACGAUACC
RNA 2: GGUAUCGUGGAAGGACUC
modifications: aminoallyl-uridine in labeled strand; sequence printed with T, transcribed as RNA
- binding result [3]: binds
